Target: T1, full-length human vinculin (human, UniProt P18206-2 1-1066, Alexa Fluor 488 maleimide on cysteines (30% Alexa488-labeled monomers in the TIRFM assay on patterns))
T1 construct: human vinculin, cDNA isolated from the human A431 cell line, PCR product of 1066 amino acids; FX cloning and 3C cleavage may leave a few extra residues at the ends; also called VCL; source: Sf9 insect cells (baculovirus), purified (Ni IMAC, 3C protease cleavage on the resin, Superdex 200); not shown: GFP, C-terminal, cleaved; 10xHis, C-terminal, cleaved
T1 sequence (looked up): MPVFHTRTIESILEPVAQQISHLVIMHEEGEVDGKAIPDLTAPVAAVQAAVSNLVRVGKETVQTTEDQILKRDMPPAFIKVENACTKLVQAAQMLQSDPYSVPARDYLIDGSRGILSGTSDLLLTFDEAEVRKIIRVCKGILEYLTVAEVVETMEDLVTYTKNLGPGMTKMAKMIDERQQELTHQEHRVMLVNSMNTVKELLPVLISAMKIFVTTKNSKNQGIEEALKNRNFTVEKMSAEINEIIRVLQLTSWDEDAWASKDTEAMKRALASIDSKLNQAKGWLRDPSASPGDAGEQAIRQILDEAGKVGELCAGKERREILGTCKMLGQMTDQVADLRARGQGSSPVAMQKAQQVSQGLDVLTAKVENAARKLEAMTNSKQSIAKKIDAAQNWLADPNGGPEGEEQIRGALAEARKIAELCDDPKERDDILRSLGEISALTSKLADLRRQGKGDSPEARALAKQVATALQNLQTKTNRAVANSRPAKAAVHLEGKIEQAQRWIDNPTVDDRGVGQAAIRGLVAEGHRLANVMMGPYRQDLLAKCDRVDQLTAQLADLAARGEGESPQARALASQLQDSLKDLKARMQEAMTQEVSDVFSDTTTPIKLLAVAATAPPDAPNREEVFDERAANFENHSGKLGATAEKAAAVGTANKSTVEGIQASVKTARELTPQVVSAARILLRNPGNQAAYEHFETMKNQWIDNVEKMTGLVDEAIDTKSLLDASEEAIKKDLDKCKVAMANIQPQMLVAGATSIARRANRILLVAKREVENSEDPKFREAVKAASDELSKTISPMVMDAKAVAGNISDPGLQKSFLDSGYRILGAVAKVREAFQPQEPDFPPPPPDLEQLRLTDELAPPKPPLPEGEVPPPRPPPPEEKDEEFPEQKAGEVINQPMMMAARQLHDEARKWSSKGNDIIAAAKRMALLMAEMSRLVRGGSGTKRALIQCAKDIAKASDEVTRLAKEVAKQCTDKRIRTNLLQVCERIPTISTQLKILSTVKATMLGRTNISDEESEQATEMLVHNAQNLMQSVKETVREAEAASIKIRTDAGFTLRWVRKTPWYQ
Test: TIRF microscopy on protein-coated micropatterns; micropatterns coated with 0.4 µM GST-talin VBS1 (control patterns with BSA); flow of 300 nM inactive vinculin (Alexa488), 0.3 µM actin, Arp2/3 complex and 80 nM WAVE WA; 20 mM Hepes pH 7.0, 40 mM KCl, 0.4% methylcellulose, 0.2% BSA
Conditions: both partners purified

B1: GST-talin VBS1 (human talin 1 vinculin-binding site 1, residues 482–636) (domain or fragment, UniProt Q9Y490 482-636, looked up)
chain: RGHMPPLTSAQQALTGTINSSMQAVQAAQATLDDFDTLPPLGQDAASKAWRKNKMDESKHEIHSQVDAITAGTASVVNLTAGDPAETDYTAVGCAVTTISSNLTEMSRGVKLLAALLEDEGGSGRPLLQAAKGLAGAVSELLRSAQPASAEPRQN
notes: construct from C; Le Clainche; Coated on micropatterns as GST-talin VBS1; also called GST-VBS1; VBS1-GST; source: E. coli BL21 (DE3)pLysS, purified (glutathione-Sepharose)
binding result: binds
